As a reminder, the Kd is the constant that tells how readily two partners part at equilibrium. Higher therefore signals weaker binding. By EC50 (read off the curve) is commonly meant the midpoint of the concentration-response curve. Low values mean greater potency, high ones weaker potency.

Experimental findings from US20120039865A1 (YALE UNIVERSITY, published 2012) are described below.

Experiment [1] addresses T1, mouse sortilin-1 (Sort1; GenBank Accession No. NM 019972) expressed in COS-7 cells (mouse, UniProt Q6PHU5 74-825).
T1 construct: cDNA clone from a mouse library, transfected into COS-7 cells; also called PGRN-R; PGRN receptor
T1 sequence: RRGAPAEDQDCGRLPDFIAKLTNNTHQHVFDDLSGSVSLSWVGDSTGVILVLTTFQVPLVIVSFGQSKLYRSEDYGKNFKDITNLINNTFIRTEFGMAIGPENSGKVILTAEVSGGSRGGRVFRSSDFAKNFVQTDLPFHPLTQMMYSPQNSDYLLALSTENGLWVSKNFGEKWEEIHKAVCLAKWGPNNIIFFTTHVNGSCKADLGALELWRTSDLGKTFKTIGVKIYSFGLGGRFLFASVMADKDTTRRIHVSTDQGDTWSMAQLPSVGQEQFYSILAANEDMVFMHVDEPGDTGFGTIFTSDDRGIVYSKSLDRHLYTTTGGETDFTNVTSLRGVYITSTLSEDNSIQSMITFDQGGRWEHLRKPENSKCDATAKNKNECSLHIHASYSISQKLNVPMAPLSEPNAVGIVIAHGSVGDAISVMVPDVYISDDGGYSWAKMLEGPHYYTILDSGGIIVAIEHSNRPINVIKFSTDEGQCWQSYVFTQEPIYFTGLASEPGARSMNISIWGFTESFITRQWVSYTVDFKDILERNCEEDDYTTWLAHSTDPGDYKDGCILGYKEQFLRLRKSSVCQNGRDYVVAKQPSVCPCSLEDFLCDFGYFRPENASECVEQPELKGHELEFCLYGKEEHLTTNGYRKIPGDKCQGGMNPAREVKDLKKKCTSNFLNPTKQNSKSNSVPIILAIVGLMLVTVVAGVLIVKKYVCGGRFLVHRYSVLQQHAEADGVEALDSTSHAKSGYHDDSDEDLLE
Kind of experiment: AP staining of transfected COS-7 cells.

The target of experiment [2] is T2, rat sortilin (Sort1) on E18 rat cortical neurons (rat, UniProt O54861 74-825).
T2 construct: Native receptor on cultured rat neurons
T2 sequence: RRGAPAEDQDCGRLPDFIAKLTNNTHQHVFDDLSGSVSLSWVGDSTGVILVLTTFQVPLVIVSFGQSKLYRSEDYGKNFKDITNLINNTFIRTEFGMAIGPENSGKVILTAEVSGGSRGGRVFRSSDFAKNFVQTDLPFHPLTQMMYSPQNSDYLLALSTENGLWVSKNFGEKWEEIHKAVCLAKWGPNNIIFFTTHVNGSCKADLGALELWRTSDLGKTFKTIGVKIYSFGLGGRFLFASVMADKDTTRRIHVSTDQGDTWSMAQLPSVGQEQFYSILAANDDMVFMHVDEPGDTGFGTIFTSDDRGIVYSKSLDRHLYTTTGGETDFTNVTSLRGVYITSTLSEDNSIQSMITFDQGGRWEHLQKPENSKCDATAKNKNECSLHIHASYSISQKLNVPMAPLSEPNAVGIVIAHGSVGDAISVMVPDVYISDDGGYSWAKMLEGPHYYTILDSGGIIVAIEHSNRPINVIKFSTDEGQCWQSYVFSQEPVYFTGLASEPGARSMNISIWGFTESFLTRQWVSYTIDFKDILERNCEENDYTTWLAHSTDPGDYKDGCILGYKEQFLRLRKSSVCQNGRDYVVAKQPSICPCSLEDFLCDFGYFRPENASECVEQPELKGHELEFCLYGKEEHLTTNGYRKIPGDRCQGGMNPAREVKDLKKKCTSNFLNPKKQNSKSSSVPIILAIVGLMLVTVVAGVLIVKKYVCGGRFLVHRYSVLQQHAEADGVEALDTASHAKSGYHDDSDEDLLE
Description: AP staining of cultured E18 rat cortical neurons (the neuronal PGRN binding site is identified by the filing as Sort1). As to the method:
Rat (Sprague-Dawley) cortical neurons were isolated from E18 embryos and cultured in vitro for 3-21 days. Cultures were maintained in Neurobasal-A medium supplemented with B27, GLUTAMAX™ (2 mM), sodium pyruvate (1 mM), penicillin, and streptomycin. The binding of 10 nM AP-PGRN or 10 nM AP was detected as a dark reaction product produced by alkaline phosphatase (AP). Binding was measured as follows. The AP tagged ligand (in NBA) was incubated with the cortical neurons for 1 hr at 4° C., washed three times with HBH buffer, fixed with formaldehyde, and after washing again with HBH the neurons were incubated in a 67° C. oven to inactivate the endogenous AP. The tagged AP was then visualized using AP substrate 5-bromo-4-chloro-3-indolyl phosphate/nitro blue tetrazolium, which results in a dark precipitate. […] The addition of 100 nM Flag-PGRN displaced 10 nM AP-PGRN (FIG. 1C, middle panel).

In experiment [3] the target is T3, human SorLA (GenBank Accession No. U60975) expressed in COS-7 cells (human, UniProt Q92673 82-2214).
T3 construct: whole, on cells
T3 sequence (Q92673 82-2214, one chain of several): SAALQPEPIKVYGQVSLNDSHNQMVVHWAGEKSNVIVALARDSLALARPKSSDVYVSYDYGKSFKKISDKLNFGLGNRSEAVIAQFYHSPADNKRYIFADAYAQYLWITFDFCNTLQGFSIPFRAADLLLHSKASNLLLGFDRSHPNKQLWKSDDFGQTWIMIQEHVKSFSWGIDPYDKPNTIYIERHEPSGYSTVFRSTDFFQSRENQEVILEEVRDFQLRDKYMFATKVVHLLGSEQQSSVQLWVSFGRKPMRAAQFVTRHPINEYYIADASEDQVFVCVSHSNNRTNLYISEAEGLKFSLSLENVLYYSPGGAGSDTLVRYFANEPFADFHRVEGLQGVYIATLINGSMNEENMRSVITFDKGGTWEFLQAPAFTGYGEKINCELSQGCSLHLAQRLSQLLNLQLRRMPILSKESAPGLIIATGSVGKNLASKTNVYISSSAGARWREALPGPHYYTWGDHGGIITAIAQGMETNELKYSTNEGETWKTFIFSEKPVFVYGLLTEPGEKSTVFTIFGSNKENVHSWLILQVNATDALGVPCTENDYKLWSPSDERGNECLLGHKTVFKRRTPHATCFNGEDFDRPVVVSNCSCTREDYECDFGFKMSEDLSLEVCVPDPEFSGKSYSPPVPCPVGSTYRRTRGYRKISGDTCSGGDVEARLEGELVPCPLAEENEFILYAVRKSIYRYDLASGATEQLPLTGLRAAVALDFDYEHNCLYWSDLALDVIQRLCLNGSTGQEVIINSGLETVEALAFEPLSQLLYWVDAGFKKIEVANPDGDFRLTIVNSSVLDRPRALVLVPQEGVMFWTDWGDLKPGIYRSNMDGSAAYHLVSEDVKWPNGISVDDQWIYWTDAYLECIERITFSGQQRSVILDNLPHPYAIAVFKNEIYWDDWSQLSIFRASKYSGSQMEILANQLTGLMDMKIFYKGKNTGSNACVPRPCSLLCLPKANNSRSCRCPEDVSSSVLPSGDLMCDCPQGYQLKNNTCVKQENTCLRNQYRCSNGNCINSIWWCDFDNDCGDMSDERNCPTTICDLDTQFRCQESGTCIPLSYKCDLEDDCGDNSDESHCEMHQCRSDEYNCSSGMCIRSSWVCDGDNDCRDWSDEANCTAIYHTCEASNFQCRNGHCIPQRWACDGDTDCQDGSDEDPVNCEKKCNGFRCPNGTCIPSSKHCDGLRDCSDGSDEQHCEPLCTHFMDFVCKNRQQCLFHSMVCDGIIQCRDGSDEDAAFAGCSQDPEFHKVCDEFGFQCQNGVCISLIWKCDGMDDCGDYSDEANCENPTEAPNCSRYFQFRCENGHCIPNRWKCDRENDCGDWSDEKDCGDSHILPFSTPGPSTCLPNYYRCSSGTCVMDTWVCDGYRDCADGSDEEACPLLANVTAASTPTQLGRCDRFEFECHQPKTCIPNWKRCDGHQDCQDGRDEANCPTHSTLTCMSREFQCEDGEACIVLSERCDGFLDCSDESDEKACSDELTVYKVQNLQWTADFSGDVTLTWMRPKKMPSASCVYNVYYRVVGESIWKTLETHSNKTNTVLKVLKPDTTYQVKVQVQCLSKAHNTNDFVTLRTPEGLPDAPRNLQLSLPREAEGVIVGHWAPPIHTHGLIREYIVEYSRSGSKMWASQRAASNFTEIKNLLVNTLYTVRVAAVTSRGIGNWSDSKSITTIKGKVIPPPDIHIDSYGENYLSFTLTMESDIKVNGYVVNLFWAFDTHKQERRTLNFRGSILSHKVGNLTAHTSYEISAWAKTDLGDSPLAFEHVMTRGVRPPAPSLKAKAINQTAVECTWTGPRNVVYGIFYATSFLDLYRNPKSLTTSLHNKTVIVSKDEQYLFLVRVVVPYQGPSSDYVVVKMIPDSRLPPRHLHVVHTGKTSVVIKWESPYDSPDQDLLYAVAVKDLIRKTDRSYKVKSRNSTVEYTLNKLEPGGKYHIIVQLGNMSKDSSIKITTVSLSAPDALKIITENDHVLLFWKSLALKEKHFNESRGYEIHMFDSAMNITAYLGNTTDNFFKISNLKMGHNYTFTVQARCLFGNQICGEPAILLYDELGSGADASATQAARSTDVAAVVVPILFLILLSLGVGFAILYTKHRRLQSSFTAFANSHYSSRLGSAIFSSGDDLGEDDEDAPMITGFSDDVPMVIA
Kind of experiment: AP staining of transfected COS-7 cells.

For experiment [4], the target named is T4, mouse SorCS1 (GenBank Accession No. BC007486) expressed in COS-7 cells (mouse, UniProt Q9JLC4 34-1167).
T4 construct: whole, on cells
T4 sequence (looked up): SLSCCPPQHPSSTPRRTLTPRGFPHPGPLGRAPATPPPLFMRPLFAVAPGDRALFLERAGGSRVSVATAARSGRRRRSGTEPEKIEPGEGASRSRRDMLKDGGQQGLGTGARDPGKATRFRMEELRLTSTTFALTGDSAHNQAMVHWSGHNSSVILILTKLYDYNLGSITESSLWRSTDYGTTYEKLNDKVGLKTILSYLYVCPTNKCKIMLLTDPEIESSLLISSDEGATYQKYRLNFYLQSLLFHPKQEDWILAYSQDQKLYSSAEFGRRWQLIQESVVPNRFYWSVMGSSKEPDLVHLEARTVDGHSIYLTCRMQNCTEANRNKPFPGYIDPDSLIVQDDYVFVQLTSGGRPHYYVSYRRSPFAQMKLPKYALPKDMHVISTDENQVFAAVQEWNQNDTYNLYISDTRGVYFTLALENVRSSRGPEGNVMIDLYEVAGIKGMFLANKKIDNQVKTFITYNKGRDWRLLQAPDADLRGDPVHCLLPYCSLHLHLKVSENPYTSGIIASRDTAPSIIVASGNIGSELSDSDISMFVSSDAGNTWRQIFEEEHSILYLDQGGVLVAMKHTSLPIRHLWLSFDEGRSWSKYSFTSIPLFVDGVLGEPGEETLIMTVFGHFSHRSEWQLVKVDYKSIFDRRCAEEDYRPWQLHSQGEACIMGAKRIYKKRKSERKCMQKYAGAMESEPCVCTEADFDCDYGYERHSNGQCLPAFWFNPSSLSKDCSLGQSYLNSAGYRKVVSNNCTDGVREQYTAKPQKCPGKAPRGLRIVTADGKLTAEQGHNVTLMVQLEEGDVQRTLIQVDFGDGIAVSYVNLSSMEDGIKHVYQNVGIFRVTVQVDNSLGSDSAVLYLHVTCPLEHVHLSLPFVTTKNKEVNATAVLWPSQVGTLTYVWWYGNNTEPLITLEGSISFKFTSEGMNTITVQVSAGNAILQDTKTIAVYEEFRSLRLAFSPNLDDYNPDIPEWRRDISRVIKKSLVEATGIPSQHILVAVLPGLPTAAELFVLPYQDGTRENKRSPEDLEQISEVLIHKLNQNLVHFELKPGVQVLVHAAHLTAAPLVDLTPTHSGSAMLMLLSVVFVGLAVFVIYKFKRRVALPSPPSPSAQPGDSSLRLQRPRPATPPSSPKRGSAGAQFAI
Description: AP staining of transfected COS-7 cells.

The target of experiment [5] is T1, mouse sortilin-1 (Sort1; GenBank …). Description: saturation binding of AP-PGRN to Sort1-transfected COS-7 cells, bound AP activity (OD); Sort1-transfected COS-7 cells, FIG. 2B. As for the experimental part: (§1) FIG. 2B is a graph depicting the saturation analysis of binding of AP-PGRN to COS-7 cells transfected with the PRGN-R, sortilin. The binding of AP-PGRN, measured by the optical density (OD units) of AP ligand bound, was determined as a function of ligand concentration (nM).
(§2) To determine the molecular nature of the neuronal binding site of PGRN, expression cloning experiments utilizing AP-PGRN as a tagged ligand were conducted. COS-7 (ATCC No. CRL-1651) cells were transfected with expression vectors containing mouse cDNAs using FUGENE® 6 according to manufacturer's specifications (Roche). An arrayed adult mouse brain cDNA library (OriGene) of 225,000 clones was screened in pools of 5,000 at a time, as well as a library consisting of 352 individual preparations of cDNAs encoding transmembrane proteins (GFC-transfection array panel, OriGene). […] In both cases, unlabeled 100 nM PGRN displaced binding (FIG. 2A, lower-right panel, and FIG. 3A, right panel).

For experiment [6] the target is unchanged. Kind of experiment: saturation binding of AP-tagged ligand to COS-7 cells transfected with sortilin (PGRN-R), bound AP read as optical density of the reaction product. As to the method:
as §1, §2

Experiment [7] deals with T2, rat sortilin (Sort1) on E18 rat …. Kind of experiment: saturation binding of AP-PGRN to cultured cortical neurons (FIG. 1D); neuronal PGRN binding sites, identified by the filing as Sort1; cultured cortical neurons (FIG. 1D), species not stated.

B1: alkaline-phosphatase (AP) alone (enzyme, UniProt P05187 23-511, looked up)
chain: IIPVEEENPDFWNREAAEALGAAKKLQPAQTAAKNLIIFLGDGMGVSTVTAARILKGQKKDKLGPEIPLAMDRFPYVALSKTYNVDKHVPDSGATATAYLCGVKGNFQTIGLSAAARFNQCNTTRGNEVISVMNRAKKAGKSVGVVTTTRVQHASPAGTYAHTVNRNWYSDADVPASARQEGCQDIATQLISNMDIDVILGGGRKYMFRMGTPDPEYPDDYSQGGTRLDGKNLVQEWLAKRQGARYVWNRTELMQASLDPSVTHLMGLFEPGDMKYEIHRDSTLDPSLMEMTEAALRLLSRNPRGFFLFVEGGRIDHGHHESRAYRALTETIMFDDAIERAGQLTSEEDTLSLVTADHSHVFSFGGYPLRGSSIFGLAPGKARDRKAYTVLLYGNGPGYVLKDGARPDVTESESGSPEYRQQSAVPLDEETHAGEDVAVFARGPQAHLVHGVQEQTFIAHVMAFAACLEPYTACDLAPPAGTTDAAHPG
notes: Control for the AP tag
As to B1, the results for the binding result in experiment [1] and in experiment [2] were “no binding (tested: 20 nM)” and “no binding (tested: 10 nM)”, respectively.

B2: AP-PGRN (alkaline phosphatase fused to human progranulin, huPGRN, GenBank Accession No. BC010577) (ligand)
chain: TRCPDGQFCPVACCLDPGGASYSCCRPLLDKWPTTLSRHLGGPCQVDAHCSAGHSCIFTVSGTSSCCPFPEAVACGDGHHCCPRGFHCSADGRSCFQRSGNNSVGAIQCPDSQFECPDFSTCCVMVDGSWGCCPMPQASCCEDRVHCCPHGAFCDLVHTRCITPTGTHPLAKKLPAQRTNRAVALSSSVMCPDARSRCPDGSTCCELPSGKYGCCPMPNATCCSDHLHCCPQDTVCDLIQSKCLSKENATTDLLTKLPAHTVGDVKCDMEVSCPDGYTCCRLQSGAWGCCPFTQAVCCEDHIHCCPAGFTCDTQKGTCEQGPHQVPWMEKAPAHLSLPDPQALKRDVPCDNVSSCPSSDTCCQLTSGEWGCCPIPEAVCCSDHQHCCPQGYTCVAEGQCQRGSEIVAGLEKMPARRASLSHPRDIGCDQHTSCPVGQTCCPSLGGSWACCQLPHAVCCEDRQHCCPAGYTCNVKARSCEKEVVSAQPATFLARSPHVGVKDVECGEGHFCHDNQTCCRDNRQGWACCPYRQGVCCADRRHCCPAGFRCAARGTKCLRREAPRWDAPLRDPALRQLL
notes: Made in HEK293T cells from pAPtag-5; also called AP-PRGN; AP tagged ligand; not shown: alkaline phosphatase (AP) tag of expression vector pAPtag-5
Turning to B2, the binding result in experiment [3] and in experiment [4] was “no binding (tested: 120 nM)” each time. Also, the results for the equilibrium dissociation constant (Kd) in experiment [5] and in experiment [7] were 6 nM and approximately 20 nM, respectively. Also, the concentration for a half-maximal effect (EC50 (read off the curve)) in experiment [6] was approximately 3 nM.
